Measurements taken from patent publication US20200179510A1 (YALE UNIVERSITY, published 2020).

Target: T1, Recombinant mouse DKK1 protein (R&D) (mouse, UniProt O54908 32-272, limits assumed)
T1 construct: Bought recombinant protein, coated on the ELISA plate at 20 ng/ml
T1 sequence (looked up): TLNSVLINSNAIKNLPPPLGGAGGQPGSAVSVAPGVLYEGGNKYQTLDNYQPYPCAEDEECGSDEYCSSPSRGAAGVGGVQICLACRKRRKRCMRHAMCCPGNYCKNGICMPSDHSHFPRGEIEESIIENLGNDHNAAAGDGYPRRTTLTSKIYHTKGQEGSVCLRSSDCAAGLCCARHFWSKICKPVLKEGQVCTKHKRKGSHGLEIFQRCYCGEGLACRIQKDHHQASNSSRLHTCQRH
Experiment: ELISA, recombinant mouse DKK1 coated at 20 ng/ml
Method: Recombinant mouse DKK2 or DKK1 protein (20 ng/ml, R&D) in a blocking buffer (1% BSA in PBS) was incubated in a 384-well microtiter plate for overnight at 4° C. The plate was washed with PBS twice and incubated with the blocking buffer for one hour at room temperature. The plate was then incubated with the anti-DKK2 5F8 antibody in the blocking buffer for 1 hour at room temperature. After repeatedly washing, the plate was incubated with an HRP-conjugated secondary antibody for 1 hour at room temperature. A chemiluminance substrate (Thermo Fisher 37070) was added to the plate, and the plate was read by an EnVision plate reader.

B1: Mouse monoclonal antibody to DKK2 (5F8) (antibody, V domains shown)
VH: GAELVRPGASVKLSCKASGYSFTNYWMNWVKQRPGQGLEWIGMIHPSDSETRLNQKFKDKATLTVDKSSSTAYMQLSSPTSEDSAVYYCAREGRLGLRSYAMDYWGQGTSVTVSS
VL: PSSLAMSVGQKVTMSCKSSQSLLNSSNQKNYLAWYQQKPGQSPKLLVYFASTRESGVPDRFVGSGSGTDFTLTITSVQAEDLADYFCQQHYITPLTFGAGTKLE
notes: Mouse hybridoma antibody; IgG3 served as its isotype control; also called anti-DKK2 5F8 antibody; anti-DKK2 antibody 5F8
binding result: no binding
